Consider eight molecules from paper PMC5762417.

The subject of data set [1] is DDX21. The data set can be described thus: EMSA. A general note: A gel shift assay detects complexes by their altered migration in electrophoresis.
Data set [2] deals with Rev (Human immunodeficiency virus 1) (UniProt P04325). Briefly: fluorescence binding. The following applies: cited from earlier work.
Data set [3] deals with Rev WT, labelled with Alexa 555 (HIV-1) (UniProt P04616). Briefly: fluorescence polarisation.

In data set [1], RRE RNA (EMSA) displayed a dissociation constant (Kd) of 37 nM. On to DDX1 DEAD domain (from UniProt Q92499), for which, in data set [2], the Kd was 79 nM. In turn, “DDX3 DEAD domain (aa 211-403) (from UniProt O00571 211-403) (domain or fragment)” gave an equilibrium dissociation constant (Kd) in data set [3] of 200 nM. Same read-out and setting: with “DDX3 (from UniProt O00571 1-662) (enzyme)” the figure was 122 nM.

B1: DDX21 DEAD domain (aa 217-396) (domain or fragment)
chain: FHHVYSGKDLIAQARTGTGKTFSFAIPLIEKLHGELQDRKRGRAPQVLVLAPTRELANQVSKDFSDITKKLSVACFYGGTPYGGQFERMRNGIDILVGTPGRIKDHIQNGKLDLTKLKHVVLDEVDQMLDMGFADQVEEILSVAYKKDSEDNPQTLLFSATCPHWVFNVAKKYMKSTYEQ
As for B1, in data set [3], the Kd amounted to 60 nM.

B2: DDX1 (enzyme)
chain: MAAFSEMGVMPEIAQAVEEMDWLLPTDIQAESIPLILGGGDVLMAAETGSGKTGAFSIPVIQIVYETLKDQQEGKKGKTTIKTGASVLNKWQMNPYDRGSAFAIGSDGLCCQSREVKEWHGCRATKGLMKGKHYYEVSCHDQGLCRVGWSTMQASLDLGTDKFGFGFGGTGKKSHNKQFDNYGEEFTMHDTIGCYLDIDKGHVKFSKNGKDLGLAFEIPPHMKNQALFPACVLKNAELKFNFGEEEFKFPPKDGFVALSKAPDGYIVKSQHSGNAQVTQTKFLPNAPKALIVEPSRELAEQTLNNIKQFKKYIDNPKLRELLIIGGVAARDQLSVLENGVDIVVGTPGRLDDLVSTGKLNLSQVRFLVLDEADGLLSQGYSDFINRMHNQIPQVTSDGKRLQVIVCSATLHSFDVKKLSEKIMHFPTWVDLKGEDSVPDTVHHVVVPVNPKTDRLWERLGKSHIRTDDVHAKDNTRPGANSPEMWSEAIKILKGEYAVRAIKEHKMDQAIIFCRTKIDCDNLEQYFIQQGGGPDKKGHQFSCVCLHGDRKPHERKQNLERFKKGDVRFLICTDVAARGIDIHGVPYVINVTLPDEKQNYVHRIGRVGRAERMGLAISLVATEKEKVWYHVCSSRGKGCYNTRLKEDGGCTIWYNEMQLLSEIEEHLNCTISQVEPDIKVPVDEFDGKVTYGQKRAAGGGSYKGHVDILAPTVQELAALEKEAQTSFLHLGYLPNQLFRTF
B2 gave an equilibrium dissociation constant (Kd) in data set [3] of 41 nM.

B3: DDX21 (enzyme)
chain: MPGKLRSDAGLESDTAMKKGETLRKQTEEKEKKEKPKSDKTEEIAEEEETVFPKAKQVKKKAEPSEVDMNSPKSKKAKKKEEPSQNDISPKTKSLRKKKEPIEKKVVSSKTKKVTKNEEPSEEEIDAPKPKKMKKEKEMNGETREKSPKLKNGFPHPEPDCNPSEAASEESNSEIEQEIPVEQKEGAFSNFPISEETIKLLKGRGVTFLFPIQAKTFHHVYSGKDLIAQARTGTGKTFSFAIPLIEKLHGELQDRKRGRAPQVLVLAPTRELANQVSKDFSDITKKLSVACFYGGTPYGGQFERMRNGIDILVGTPGRIKDHIQNGKLDLTKLKHVVLDEVDQMLDMGFADQVEEILSVAYKKDSEDNPQTLLFSATCPHWVFNVAKKYMKSTYEQVDLIGKKTQKTAITVEHLAIKCHWTQRAAVIGDVIRVYSGHQGRTIIFCETKKEAQELSQNSAIKQDAQSLHGDIPQKQREITLKGFRNGSFGVLVATNVAARGLDIPEVDLVIQSSPPKDVESYIHRSGRTGRAGRTGVCICFYQHKEEYQLVQVEQKAGIKFKRIGVPSATEIIKASSKDAIRLLDSVPPTAISHFKQSAEKLIEEKGAVEALAAALAHISGATSVDQRSLINSNVGFVTMILQCSIEMPNISYAWKELKEQLGEEIDSKVKGMVFLKGKLGVCFDVPTASVTEIQEKWHDSRRWQLSVATEQPELEGPREGYGGFRGQREGSRGFRGQRDGNRRFRGQREGSRGPRGQRSGGGNKSNRSQNKGQKRSFSKAFGQ
B3 yielded a Kd in data set [3] of 21 nM.

B4: DDX21(183-620) (domain or fragment)
chain: QKEGAFSNFPISEETIKLLKGRGVTFLFPIQAKTFHHVYSGKDLIAQARTGTGKTFSFAIPLIEKLHGELQDRKRGRAPQVLVLAPTRELANQVSKDFSDITKKLSVACFYGGTPYGGQFERMRNGIDILVGTPGRIKDHIQNGKLDLTKLKHVVLDEVDQMLDMGFADQVEEILSVAYKKDSEDNPQTLLFSATCPHWVFNVAKKYMKSTYEQVDLIGKKTQKTAITVEHLAIKCHWTQRAAVIGDVIRVYSGHQGRTIIFCETKKEAQELSQNSAIKQDAQSLHGDIPQKQREITLKGFRNGSFGVLVATNVAARGLDIPEVDLVIQSSPPKDVESYIHRSGRTGRAGRTGVCICFYQHKEEYQLVQVEQKAGIKFKRIGVPSATEIIKASSKDAIRLLDSVPPTAISHFKQSAEKLIEEKGAVEALAAALAHISG
B4: the Kd in data set [3] was found to be 48 nM.

A word on the Kd: it is the concentration at which binding is half-saturated.
